Drawing on US20250354164A1, this text covers HRD efficiencies (mKate knock-in assay) for one substance.

The test has as its target Cas9 protein fused to 10 tandem copies of GCN4 peptide separated by linkers (SunTag) (Streptococcus pyogenes) (UniProt Q99ZW2). The test can be described thus: cell-based or functional assay.
Sequence of UniProt Q99ZW2 (Q99ZW2 whole entry, the tested form may be a part): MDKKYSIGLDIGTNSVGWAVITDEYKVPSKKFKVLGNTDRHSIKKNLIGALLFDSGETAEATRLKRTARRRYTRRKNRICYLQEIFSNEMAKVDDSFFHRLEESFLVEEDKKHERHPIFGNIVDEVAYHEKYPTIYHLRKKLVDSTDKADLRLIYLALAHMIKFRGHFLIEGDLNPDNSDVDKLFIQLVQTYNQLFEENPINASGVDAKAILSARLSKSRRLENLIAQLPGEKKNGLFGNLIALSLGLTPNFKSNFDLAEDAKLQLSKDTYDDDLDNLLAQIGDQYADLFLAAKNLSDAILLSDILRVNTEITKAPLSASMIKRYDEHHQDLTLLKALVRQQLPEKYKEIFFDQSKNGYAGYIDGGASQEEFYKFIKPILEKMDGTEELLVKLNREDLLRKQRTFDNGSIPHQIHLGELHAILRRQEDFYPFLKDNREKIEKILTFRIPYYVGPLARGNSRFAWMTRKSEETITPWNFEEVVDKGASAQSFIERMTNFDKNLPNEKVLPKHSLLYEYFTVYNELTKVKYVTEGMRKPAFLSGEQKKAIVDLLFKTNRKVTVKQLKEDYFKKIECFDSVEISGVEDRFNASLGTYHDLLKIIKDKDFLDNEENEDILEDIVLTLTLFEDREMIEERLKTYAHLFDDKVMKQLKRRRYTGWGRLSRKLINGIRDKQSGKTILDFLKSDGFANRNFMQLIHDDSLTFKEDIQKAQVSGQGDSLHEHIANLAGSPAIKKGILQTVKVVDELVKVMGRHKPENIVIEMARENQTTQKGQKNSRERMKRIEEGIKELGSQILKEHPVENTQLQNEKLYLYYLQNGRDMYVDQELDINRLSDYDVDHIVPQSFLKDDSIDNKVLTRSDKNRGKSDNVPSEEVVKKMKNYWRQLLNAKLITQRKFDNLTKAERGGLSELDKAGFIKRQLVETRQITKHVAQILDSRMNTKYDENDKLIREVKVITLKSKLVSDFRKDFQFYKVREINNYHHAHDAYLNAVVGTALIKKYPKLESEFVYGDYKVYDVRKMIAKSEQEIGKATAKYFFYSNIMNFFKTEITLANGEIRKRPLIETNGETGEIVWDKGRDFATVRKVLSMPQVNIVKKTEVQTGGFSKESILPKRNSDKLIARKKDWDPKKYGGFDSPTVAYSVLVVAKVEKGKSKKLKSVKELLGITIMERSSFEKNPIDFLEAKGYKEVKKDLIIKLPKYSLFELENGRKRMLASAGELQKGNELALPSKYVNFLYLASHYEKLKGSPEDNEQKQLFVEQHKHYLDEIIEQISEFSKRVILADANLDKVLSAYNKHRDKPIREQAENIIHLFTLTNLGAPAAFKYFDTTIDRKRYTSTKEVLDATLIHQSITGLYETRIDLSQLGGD

For “REDIT recombinator protein (SSAP RecT) fused to scFV antibody peptide (SunTag recruitment)”, the HRD efficiencies (mKate knock-in assay) was 2 fold.
